The results in this text go back to PMC10036606.

The assay addresses CD58 extracellular domain (human) (UniProt P19256).
Sequence of UniProt P19256 (P19256 29-215): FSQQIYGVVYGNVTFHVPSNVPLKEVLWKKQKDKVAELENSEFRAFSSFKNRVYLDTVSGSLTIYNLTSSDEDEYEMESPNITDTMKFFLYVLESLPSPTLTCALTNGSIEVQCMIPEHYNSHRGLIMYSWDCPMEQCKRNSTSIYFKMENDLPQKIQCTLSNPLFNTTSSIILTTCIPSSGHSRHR

“CD2 (from UniProt P06729 25-351) (receptor)”: the glycocalyx exclusion on the SLB2 (reduction in fluorescence, contact tightness) in regions of CD58 accumulation under J8-GECI cells, against 20% in regions of ICAM-1 accumulation worked out at 45%.
